The values below are quoted from earlier work in article PMC7911750.

The target in this series is NKp30-Ig ECD (Homo sapiens) (UniProt O14931).
Sequence of UniProt O14931 (O14931 19-135): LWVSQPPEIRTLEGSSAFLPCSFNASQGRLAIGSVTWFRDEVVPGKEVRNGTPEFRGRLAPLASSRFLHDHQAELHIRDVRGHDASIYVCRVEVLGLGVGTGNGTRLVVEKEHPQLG

In general, Kd refers to the concentration at which binding is half-saturated. Take pp65 (from UniProt P06725): the Kd was 10 nM.
